Experimental data taken from patent US20110300138A1 (published 2011).

How the values were obtained:
[1] = molecular target: TSHR (thyroid stimulating hormone receptor), full length human (human) (UniProt P16473); assay: negative control; competitor ^125I-K1-70 IgG, TSHR coated tubes; 100 µg/mL in assay buffer
[2] = molecular target: human thyroid stimulating hormone receptor (TSHR), full length (human) (UniProt P16473); assay: 125I-K1-70 Fab (competitor) binding to TSHR coated tubes; negative control MAb 1 µg/mL in HBD serum
[3] = molecular target: human thyroid stimulating hormone receptor (TSHR), full length (human) (UniProt P16473); assay: 125I-K1-70 Fab (competitor) binding to TSHR coated tubes; negative control MAb 1 µg/mL in assay buffer
[4] = molecular target: TSHR (full length) coated on tubes (human) (UniProt P16473); assay: inhibition of 125I-K1-18 Fab (competitor) binding to TSHR coated tubes; negative control 10 µg/mL in assay buffer
[5] = molecular target: thyroid stimulating hormone receptor (TSHR), full length human TSHR (human) (UniProt P16473); assay: TSH-biotin competition ELISA, TSHR coated wells; 1 µg/mL in assay buffer
[6] = molecular target: thyroid stimulating hormone receptor (TSHR), full length human TSHR (human) (UniProt P16473); assay: TSH-biotin competition ELISA, TSHR coated wells; 10 µg/mL in assay buffer
[7] = molecular target: TSHR (full length) coated on tubes (human) (UniProt P16473); assay: inhibition of 125I-K1-18 Fab (competitor) binding to TSHR coated tubes; test sample 1 µg/mL in HBD serum
[8] = molecular target: TSHR (full length) coated on tubes (human) (UniProt P16473); assay: inhibition of 125I-K1-18 Fab (competitor) binding to TSHR coated tubes; test sample 1 µg/mL in assay buffer
[9] = molecular target: TSH receptor (TSHR), full length human, coated on tubes (human) (UniProt P16473); assay: inhibition of 125I-K1-18 IgG binding to TSHR coated tubes; competitor 125I-K1-18 IgG; sample at 0.01 µg/mL in HBD serum
[10] = molecular target: TSH receptor (full length human TSHR) (human) (UniProt P16473); assay: competition ELISA: inhibition of M22 Fab-peroxidase (competitor) binding to TSHR coated wells; test sample at 0.01 µg/mL diluted in HBD serum pool
[11] = molecular target: TSH receptor (TSHR), full length human, coated on tubes (human) (UniProt P16473); assay: inhibition of 125I-TSH binding to TSHR coated tubes; 0.003 µg/mL, diluted in assay buffer
[12] = molecular target: TSH receptor (full length human TSHR) coated on tubes (human) (UniProt P16473); assay: 125I-TSH binding inhibition read against NIBSC 90/672; mean over 10, 30 and 100 ng/mL, in assay buffer
[13] = molecular target: human TSH receptor (full length) coated on ELISA plate wells (human) (UniProt P16473); assay: TSH-biotin binding inhibition ELISA, TSHR coated wells; 0.03 µg/mL in assay buffer + 100 µg/mL 5B3 IgG
[14] = molecular target: TSHR with Lys129 mutated to Ala, expressed in CHO cells (human) (UniProt P16473); assay: cell-based or functional assay
[15] = molecular target: wild type TSHR (human TSH receptor) expressed in CHO cells (human) (UniProt P16473); assay: cell-based or functional assay
[16] = molecular target: human thyroid stimulating hormone receptor (TSHR), full length (human) (UniProt P16473); assay: 125I-K1-18 Fab competition, TSHR coated tubes; 10 µg/mL in HBD
[17] = molecular target: human thyroid stimulating hormone receptor (TSHR), full length (human) (UniProt P16473); assay: 125I-K1-18 Fab competition, TSHR coated tubes; 10 µg/mL in assay buffer
[18] = molecular target: human TSH receptor (full length) coated on ELISA plate wells (human) (UniProt P16473); assay: TSH-biotin binding inhibition ELISA, TSHR coated wells; 0.1 µg/mL in HBD serum pool
[19] = molecular target: TSH receptor (TSHR), full length human, coated on tubes (human) (UniProt P16473); assay: inhibition of 125I-TSH binding to TSHR coated tubes; 1 µg/mL, diluted in assay buffer
[20] = molecular target: TSH receptor (TSHR), full length human, coated on tubes (human) (UniProt P16473); assay: inhibition of 125I-TSH binding to TSHR coated tubes; 0.1 µg/mL, diluted in assay buffer
[21] = molecular target: TSH receptor (TSHR), full length human, coated on tubes (human) (UniProt P16473); assay: inhibition of 125I-TSH binding to TSHR coated tubes; 0.01 µg/mL, diluted in HBD serum pool
[22] = molecular target: TSH receptor (TSHR) coated on tubes (human) (UniProt P16473); assay: inhibition of 125I-K1-70 IgG binding to TSHR coated tubes; sample 100 µg/mL in assay buffer
[23] = molecular target: TSH receptor (TSHR) coated on tubes (human) (UniProt P16473); assay: inhibition of 125I-K1-70 IgG binding to TSHR coated tubes; sample 0.1 µg/mL in HBD serum pool
[24] = molecular target: thyroid stimulating hormone receptor (full length human TSHR) (human) (UniProt P16473); assay: ELISA, inhibition of TSH-biotin binding to TSHR coated wells; 0.1 µg/mL, diluted in HBD serum pool
[25] = molecular target: TSH receptor (TSHR), full length human, coated on tubes (human) (UniProt P16473); assay: inhibition of 125I-K1-18 IgG (competitor) binding to TSHR coated tubes; test sample at 0.01 µg/mL in HBD serum pool
[26] = molecular target: TSH receptor (TSHR), full length human, coated on tubes (human) (UniProt P16473); assay: inhibition of 125I-K1-18 IgG (competitor) binding to TSHR coated tubes; test sample at 1 µg/mL in HBD serum pool; mean of duplicate

5B3 IgG (antibody) was tested, and the Inhibition of binding (%) [1] was 1.3%, the Inhibition of binding (%) [2] was -7.8% and the Inhibition of binding (%) [3] was -1.7%. It also gave an Inhibition of binding (%) [4] of 0.6%.

Work on 9D33 IgG (antibody) yielded an Inhibition of binding (%) [5] of 81.8%, an Inhibition of binding (%) [6] of 84.8% and an Inhibition of binding (%) [7] of 64.8%. The Inhibition of binding (%) [8] was 66.5%, the Inhibition of binding (%) [9] was 5.3% and the Inhibition of binding (%) [10] was 6.2%.

Work on M22 IgG (antibody) yielded an Inhibition of binding (%) [11] of -1.5%, a mean units/mg [12] of 266 units/mg and a % inhibition of TSH-biotin binding [13] of 43.6%.

For TSH (ligand), the Cyclic AMP produced, mutated TSHR, TSH 0.01 ng/mL [14] was 2.69 pmol/mL, the Cyclic AMP produced, mutated TSHR, TSH 0.03 ng/mL [14] was 5.34 pmol/mL and the Cyclic AMP produced, mutated TSHR, TSH 0.1 ng/mL [14] was 12.7 pmol/mL. For the same molecule, the Cyclic AMP produced, mutated TSHR, TSH 0.3 ng/mL [14] was 29 pmol/mL, the Cyclic AMP produced, mutated TSHR, TSH 1 ng/mL [14] was 40.8 pmol/mL and the Cyclic AMP produced, mutated TSHR, TSH 3 ng/mL [14] was 48.5 pmol/mL. For the same molecule, the Mutated/Wild type (%) of cyclic AMP produced, TSH 0.01 ng/mL [14] was 134%, the Mutated/Wild type (%) of cyclic AMP produced, TSH 0.03 ng/mL [14] was 161% and the Mutated/Wild type (%) of cyclic AMP produced, TSH 0.1 ng/mL [14] was 131%. For the same molecule, the Mutated/Wild type (%) of cyclic AMP produced, TSH 0.3 ng/mL [14] was 111%, the Mutated/Wild type (%) of cyclic AMP produced, TSH 1 ng/mL [14] was 88% and the Mutated/wild type (%) of cyclic AMP produced; TSH 3 ng/mL [14] was 101%. It also gave a Cyclic AMP produced, wild type TSHR, TSH 0.01 ng/mL [15] of 2.01 pmol/mL, a Cyclic AMP produced, wild type TSHR, TSH 0.03 ng/mL [15] of 3.32 pmol/mL and a Cyclic AMP produced, wild type TSHR, TSH 0.1 ng/mL [15] of 9.69 pmol/mL. The Cyclic AMP produced, wild type TSHR, TSH 0.3 ng/mL [15] was 26.1 pmol/mL, the Cyclic AMP produced, wild type TSHR, TSH 1 ng/mL [15] was 46.3 pmol/mL and the Cyclic AMP produced, wild type TSHR, TSH 3 ng/mL [15] was 48.1 pmol/mL.

B1: 5C9 IgG (antibody, from another filing, V domains shown)
VH: EVQLVESGGGLIQPGGSLRLSCAASGFTVSSNYMSWVRQAPGKGLEWVSVTYSGGSTSYADSVKGRFTISRDNSKNTLYLQMNSLRAEDTAVYYCARGGRYCSSISCYARSGCDYWGQGTLVTVSS
VL: AIQMTQSPSSLSASVGDRVTITCRASQSISNYLNWYQQKPGKAPKLLIYAASSLQSGVPSRFSGSGSGTDFTLTISSLQPEDFATYYCQQSYSSPSTTFGQGTKLEIK
B1 was tested, and the Inhibition of binding (%) [16] was 49.8%, the Inhibition of binding (%) [17] was 63.8% and the % inhibition of TSH-biotin binding [18] was 21.6%. It also gave an Inhibition of binding (%) [19] of 38.7%, an Inhibition of binding (%) [20] of 24.4% and an Inhibition of binding (%) [21] of -5.5%. The Inhibition of binding (%) [22] was 93.3%, the Inhibition of binding (%) [23] was 4.4% and the Inhibition of binding (%) [24] was 10.4%. The Inhibition of binding (%) [25] was -1.8% and the Inhibition of binding (%) [26] was 26.8%.
